According to patent US20180346912, “METHOD FOR STABILIZING DNA APTAMERS” (TAGCYX BIOTECHNOLOGIES, published 2018):

Biological target: vWF A1 domain (UniProt P04275 P04275:1277-1453)
Assay: competition; EMSA competition vs 32P-ARC1172(wt) (=1.00), PBS, 0.1 mg/mL BSA, 37 C
Conditions: tags: U-Protein Express BV
Description: In order to examine each prepared nucleic acid for its binding to vWF A1 domain, competition with ARC1172 reported as an aptamer binding to vWF A1 domain was tested using each variant nucleic acid. In 20 μL of a reaction solution (1× PBS and 0.1 mg/mL BSA). ARC1172 labeled with [γ-³²P]ATP (final concentration: 100 nM), each unlabeled nucleic acid (ARC1172(wt), ARC1172(wt)-iT, ARC1172-F, ARC 1172-F-iT, and ARC1172-G) (final concentration: 100 nM), and vWF A1 domain (100 nM, U-Protein Express BV) were mixed and incubated at 37° C. for 30 minutes. Then, 25% glycerol containing bromophenol blue was added thereto at a final glycerol concentration of 5%. Labeled ARC1172(wt) bound to vWF A1 domain was separated from labeled ARC1172 in a free form by 10% non-denaturing polyacrylamide gel electrophoresis. The gel was dried and visualized using Bio Image Analyzer FLA-7000, and the radioactivity was measured. The gel shift rate, the inhibition rate, and the relative binding rate were calculated in accordance with Example 2.

vWF A1 domain, sequence (P04275 1277-1453, one chain of several): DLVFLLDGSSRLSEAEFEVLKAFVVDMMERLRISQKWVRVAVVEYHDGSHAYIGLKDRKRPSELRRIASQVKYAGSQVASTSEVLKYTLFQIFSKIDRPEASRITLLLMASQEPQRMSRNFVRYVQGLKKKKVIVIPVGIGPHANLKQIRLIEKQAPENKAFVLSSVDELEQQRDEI

GGCGTGCAGTGCCGAAGGCCGTGCGGTGCCTCCGTCACGCCCGCGAAGCG (ssDNA) [ARC1172-G]
binding signal (internal and 3' mini-hairpins): 1.61

GGCGTGCAGTGCCGAAGGCCGTGCGGTGCCTCCGTCACGCC (ssDNA, 3' idT) [ARC1172-F-iT]
binding signal (internal mini-hairpin): 1.43

GGCGTGCAGTGCCGAAGGCCGTGCGGTGCCTCCGTCACGCC (ssDNA) [ARC1172-F]
binding signal (internal mini-hairpin): 1.37

GGCGTGCAGTGCCTTCGGCCGTGCGGTGCCTCCGTCACGCC (ssDNA, 3' idT) [ARC1172(wt)-iT]
binding signal: 1.12
